These are literature values, as cited in paper PMC10536416.

Series [1] deals with Amyloid beta 1-42 Abeta 1-42 (Homo sapiens) (UniProt P05067).
Series [2] shares this target. The source holds these as a separate data set.

Like-named read-outs stand apart in the source and are kept apart here.

For “Amyloid beta 1-40 on dextran-coated iron oxide nanoparticles Abeta 1-40 (from UniProt P05067)”, the Kd in series [1] is 202 nM. As for “Amyloid beta 1-40 Abeta 1-40 (from UniProt P05067)”, in series [2], the Kd is 266 nM.
